According to PMC4164519:

Molecular target: Neu4 with a C-terminal TAP (SBP/CBP) tag expressed in COS 7 cells (human) (UniProt Q8WWR8)
Experiment: SEC; FPLC size exclusion chromatography of the purified enzyme; apparent mass

Neu4 with a C-terminal TAP (SBP/CBP) tag expressed in COS 7 cells (from UniProt Q8WWR8 1-484) (enzyme)
stoichiometry N: 2
